The Human Domainome abundance scans (Beltran et al. 2025)
± gives the uncertainty stated by the source.

B1: Intersectin-1, residues 1156 to 1213; numbered along this chain, Q15811 (parent)
chain: AVCQVIGMYDYTAQNDDELAFNKGQIINVLNKEDPDWWKGEVNGQVGLFPSNYVKLTT

Variants of: B1
Assay: abundance fitness (aPCA) (normalised: wild type 0, dead -1); higher = more abundant; growth selection in yeast, the domain comes from the species named
Details: Homo sapiens

Abundance fitness: each site, then its substitutions
T57: Y -0.063 ± 0.15, M -0.009 ± 0.15, V -0.06 ± 0.089, C -0.115 ± 0.12, D -0.055 ± 0.15, N -0.028 ± 0.17, W -0.167 ± 0.12, L -0.116 ± 0.11, K -0.024 ± 0.21, I -0.13 ± 0.14, R -0.131 ± 0.078, E -0.519 ± 0.16, A -0.059 ± 0.083, F 0.086 ± 0.15, H -0.003 ± 0.14, Q 0.028 ± 0.15, S -0.174 ± 0.09
S51: E -1.02 ± 0.23, N -0.506 ± 0.19, P -0.235 ± 0.12, T -0.312 ± 0.14, H -0.517 ± 0.22, V -0.181 ± 0.095, W -0.877 ± 0.17, K -0.09 ± 0.15, A -0.029 ± 0.089, G -0.87 ± 0.12, R -0.053 ± 0.093, Q -0.452 ± 0.14, L -0.867 ± 0.17, C -0.504 ± 0.14, Y -0.927 ± 0.28, I -0.751 ± 0.31, F -0.942 ± 0.2
P50: E -0.847 ± 0.25, I -0.671 ± 0.35, Y -0.932 ± 0.27, K -0.547 ± 0.21, C -0.615 ± 0.19, D -0.507 ± 0.19, Q -1.06 ± 0.26, V -0.929 ± 0.18, M -0.799 ± 0.22, S -0.954 ± 0.14, R -0.323 ± 0.087, F -0.459 ± 0.2, T -0.773 ± 0.19, W -0.713 ± 0.14, L -0.873 ± 0.14, N -0.71 ± 0.25, H -0.973 ± 0.3
K55: W -0.678 ± 0.17, Q -0.177 ± 0.16, R 0.067 ± 0.084, S -0.004 ± 0.084, L -0.318 ± 0.089, Y -0.427 ± 0.15, I -0.325 ± 0.21, D -0.513 ± 0.15, P -0.797 ± 0.16, C -0.098 ± 0.15, N -0.456 ± 0.17, T -0.225 ± 0.11, H -0.431 ± 0.18, A -0.146 ± 0.1, M 0.024 ± 0.16, F -0.614 ± 0.17
V54: K -0.906 ± 0.24, R -0.684 ± 0.094, Y -0.766 ± 0.26, P -0.842 ± 0.17, G -0.836 ± 0.12, C -0.367 ± 0.12, W -0.762 ± 0.14, I -0.773 ± 0.16, E -0.931 ± 0.33, T -0.065 ± 0.14, Q -0.904 ± 0.22, A -0.546 ± 0.11, N -0.758 ± 0.21, F -0.806 ± 0.25, M -0.755 ± 0.27, L -0.854 ± 0.14, S -0.874 ± 0.12, H -0.767 ± 0.23, D -0.943 ± 0.31
Y53: F -0.208 ± 0.15, S -0.426 ± 0.1, V -0.343 ± 0.089, M 0.12 ± 0.15, P -0.726 ± 0.17, E -0.711 ± 0.2, C 0.034 ± 0.1, A 0.043 ± 0.093, Q -0.224 ± 0.14, T -0.11 ± 0.12, K 0.085 ± 0.14, H -0.26 ± 0.2, L -0.155 ± 0.086, N -0.54 ± 0.25, R -0.068 ± 0.078, D -0.834 ± 0.18, I -0.239 ± 0.28, W -0.255 ± 0.11, G -0.601 ± 0.086
T58: S -0.144 ± 0.16, L -0.187 ± 0.41, A -0.315 ± 0.16, V -0.113 ± 0.32, I -0.587 ± 0.4, P -0.09 ± 0.2, R 0.062 ± 0.26, N -0.233 ± 0.26, G 0.053 ± 0.22
L56: V 0.006 ± 0.094, G -0.102 ± 0.079, Q -0.151 ± 0.11, F -0.124 ± 0.16, E 0.005 ± 0.13, H -0.334 ± 0.24, N -0.149 ± 0.22, M -0.148 ± 0.12, W -0.405 ± 0.11, Y -0.168 ± 0.22, T 0.081 ± 0.14, P -0.121 ± 0.14, I 0.069 ± 0.2, R -0.341 ± 0.083, D -0.106 ± 0.15, C 0.266 ± 0.13, S 0.083 ± 0.087, A 0.08 ± 0.093
F49: Q -0.661 ± 0.15, E -0.816 ± 0.11, R -0.862 ± 0.09, D -0.485 ± 0.19, T -0.861 ± 0.18, Y -0.782 ± 0.28, C -0.871 ± 0.21, I -0.184 ± 0.13, L -0.527 ± 0.088, P -0.814 ± 0.18, K -0.84 ± 0.14, V -0.391 ± 0.078, G -0.829 ± 0.069, W -0.76 ± 0.096, N -0.431 ± 0.21, M -0.725 ± 0.12, S -0.817 ± 0.12
N52: V -0.439 ± 0.11, R 0.022 ± 0.083, A -0.183 ± 0.1, D -0.079 ± 0.14, E -0.201 ± 0.11, Q -0.147 ± 0.13, C -0.251 ± 0.12, S -0.075 ± 0.097, T -0.067 ± 0.13, I -0.364 ± 0.24, F -0.784 ± 0.33, G -0.253 ± 0.076, H -0.469 ± 0.15, W -0.446 ± 0.14, P -0.544 ± 0.18, L -0.561 ± 0.12, Y -0.291 ± 0.21, M -0.097 ± 0.14
